In article PMC4004960 one finds Ki data, which are given here for 1 substance.

In this assay the target is BRD4-BD1 (recombinant, NMR and fluorescence anisotropy) (UniProt O60885). The experiment in a line: fluorescence polarisation. (In fluorescence polarisation assays a small probe gives low polarisation when free and higher when bound to something large.)

As usually defined, the Ki is a dissociation constant, usually derived from enzyme kinetics or from competition with a known ligand. Consider “Twist-K73ac/K76ac peptide (residues 68-79) (from UniProt Q15672 68-79)”, for which the Ki is over 3000 µM.
